Test results taken from patent publication US20220073599A1 (Hoffmann-La Roche, published 2022).
Changes are numbered by the printed parent chain. Each block holds one binder with its values, some of them ahead of it.

Experiments:
human VEGFA-121-His [1] = molecular target: T1, human VEGFA-121-His (human, UniProt P15692 181-395); experiment: SPR, VEGF-A121-His captured by anti-His antibody, Fab injected, single cycle kinetics
T1 construct: Prepared in-house; not shown: His tag
T1 sequence: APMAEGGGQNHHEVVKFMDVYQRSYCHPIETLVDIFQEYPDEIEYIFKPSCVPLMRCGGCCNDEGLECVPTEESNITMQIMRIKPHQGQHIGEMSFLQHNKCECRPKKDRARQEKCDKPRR
Protocol: (§1) An anti-His capturing antibody (GE Healthcare 28995056) was immobilized to a Series S Sensor Chip C1 (GE Healthcare BR100535) using standard amine coupling chemistry resulting in a surface density of approximately 600 resonance units (RU). As running and dilution buffer, HBS-P+ (10 mM HEPES, 150 mM NaCl pH 7.4, 0.05% Surfactant P20) was used. […] A dilution series of the tested antibody (3.7-300 nM, 1:3 dilution) was successively injected for 60 s each, dissociation was monitored for 3600 s at a flow rate of 30 μl/min (single cycle kinetics). The surface was regenerated by injecting 10 mM Glycine pH 1.5 for 60 s at a flow of 5 μl/min. […] Curve fitting was performed using the 1:1 Langmuir binding model within the Biacore® evaluation software.
(§2) Binding kinetics to human VEGF-A and human ANG2 for the candidate antibodies were assessed as described above using the indicated Fab fragments (amino acid sequence as illustrated in Table 4).

human Ang2-RBD-muFc = molecular target: T2, human Ang2-RBD-muFc (human, UniProt O15123 275-496, limits assumed); experiment: KinExA equilibrium titration in solution, constant Ang2-RBD-muFc
T2 construct: also called Human ANG2 (KinExA); not shown: murine Fc (muFc)
T2 sequence: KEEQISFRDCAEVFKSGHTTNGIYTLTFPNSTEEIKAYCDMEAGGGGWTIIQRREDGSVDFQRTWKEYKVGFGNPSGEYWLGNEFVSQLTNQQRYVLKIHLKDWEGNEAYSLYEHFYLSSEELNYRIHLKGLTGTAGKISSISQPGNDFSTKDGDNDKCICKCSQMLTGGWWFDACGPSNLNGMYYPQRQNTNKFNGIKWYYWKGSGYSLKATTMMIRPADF
Protocol: All KinExA® experiments were performed at room temperature (RT) using PBS pH 7.4 with 0.01% BSA and 0.01% Tween® 20 (BioRad, #161-0781) as running buffer. […] A flow rate of 0.25 ml/min was used. A constant amount of Ang2-RBD-muFc (50 pM and in a second experiment 500 pM) was titrated with tested antibody by twofold serial dilution starting at 4 nM (concentration range 1.95 pM-4000 pM). Antigen-antibody complexes were incubated at RT for at least 8 h to allow equilibrium to be reached. Equilibrated mixtures were then drawn through a column of Anti-Ang2 antibody (MAB098) coupled beads in the KinExA® system at a volume of 750 μl for 50 pM constant Ang2 and at a volume of 188 μl for 500 pM constant Ang2 permitting unbound Ang2 to be captured by the beads without perturbing the equilibrium state of the solution. Bound Ang2 was detected using a second biotinylated anti-Ang2 antibody (BAM0981) with a concentration of 250 ng/ml and following by an injection of 250 ng/ml Streptavidin Alexa Fluor™ 647 conjugate in sample buffer. Each sample was measured in duplicates for all equilibrium experiments. The KD was obtained from non-linear regression analysis of the data using a one-site homogeneous binding model contained within the KinExA® software (Version 4.0.11) using the “standard analysis” method. The software calculates the KD and determines the 95% confidence interval by fitting the data points to a theoretical KD curve. The 95% confidence interval is given as KD low and KD high.

ANG2 = molecular target: T3, ANG2 (human, UniProt O15123 19-496, limits assumed); experiment: cell-based or functional assay
T3 sequence: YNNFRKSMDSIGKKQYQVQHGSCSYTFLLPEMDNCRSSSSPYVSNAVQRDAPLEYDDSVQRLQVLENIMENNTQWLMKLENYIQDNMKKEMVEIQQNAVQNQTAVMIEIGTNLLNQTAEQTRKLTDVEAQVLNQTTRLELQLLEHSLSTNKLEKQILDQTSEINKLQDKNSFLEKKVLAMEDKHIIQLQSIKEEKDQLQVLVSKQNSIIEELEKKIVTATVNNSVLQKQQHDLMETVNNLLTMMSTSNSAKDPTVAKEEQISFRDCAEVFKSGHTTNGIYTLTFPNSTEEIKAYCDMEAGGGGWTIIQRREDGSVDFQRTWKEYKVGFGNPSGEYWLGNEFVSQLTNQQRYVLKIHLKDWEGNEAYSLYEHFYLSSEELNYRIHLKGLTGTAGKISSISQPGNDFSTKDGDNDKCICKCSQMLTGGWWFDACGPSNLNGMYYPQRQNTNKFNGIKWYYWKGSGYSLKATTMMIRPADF

human VEGFA-121 [2] = molecular target: T4, human VEGFA-121 (human, UniProt P15692 181-395); experiment: SPR, Fab captured by anti-Fab antibody; 1) VEGFA-121 alone, then buffer; final signal in % of the sum of the single signals
T4 construct: sources differ (in-house, R&D, Peprotech); also called hVEGF-A121
T4 sequence: T1 sequence
Protocol: (§3) The bispecific Fab was captured by injecting a 6.5 μg/ml solution for 60 sec at a flow of 5 μl/min. Independent binding of each ligand to the bispecific Fab was analysed by determining the active binding capacity for each ligand, either added sequentially or simultaneously (flow of 10 μl/min): [0359] […] [0360] 2) Injection of human Ang2 with a concentration of 5 μg/ml for 60 sec (identifies single binding of the antigen) [0361] […] [0362] […] [0363]
(§4) Independent binding of candidate antibodies to human VEGF-A and human ANG2 was analysed by SPR as described above in the “Materials & general methods” section.

human VEGFA-121-His [3] = molecular target: T1, human VEGFA-121-His; experiment: SPR, VEGF-A121-His captured by anti-His antibody, Fab injected, single cycle kinetics, 1:1 fit
Protocol: as §1, §2

human Ang2-RBD [4] = molecular target: T5, human Ang2-RBD (human, UniProt O15123 275-496, limits assumed); experiment: SPR, Fab captured by anti-Fab antibody; 2) Ang2-RBD alone, then buffer; final signal in % of the sum of the single signals
T5 construct: also called Human ANG2 (SPR); Angiopoietin 2-RBD
T5 sequence: T2 sequence
Protocol: as §3, §4

human VEGFA-121 [5] = molecular target: T4, human VEGFA-121; experiment: cell-based or functional assay
human Ang2-RBD [6] = molecular target: T5, human Ang2-RBD; experiment: SPR, Fab captured by anti-Fab antibody; 3) VEGFA-121 first, then Ang2-RBD (binding of Ang2 in the presence of VEGFA-121); final combined signal of both antigens
Protocol: as §3, §4

t1/2 (human VEGFA-121-His [1]): 23.3 h | Kd (human Ang2-RBD-muFc): 0.00275 nM | IC50, pTie2-Assay (Tie2 phosphorylation in Hek293 cells expressing Tie2, stimulated with Ang-2) (ANG2): 7 nM | Signal [%] (human VEGFA-121 [2]): 50% | kon (human VEGFA-121-His [3]): 737000 M⁻¹ s⁻¹ | Signal [%] (human Ang2-RBD [4]): 50% | IC50, Reporter Gene Assay (Hek_NFAT_KDR_Luc cells stimulated with VEGF-A121, luminescence) (human VEGFA-121 [5]): 1.09 nM | Signal [%] (human Ang2-RBD [6]): 85%
B1: bispecific anti-VEGF-A/anti-ANG2 Fab fragment P1AA0902 (Fab, V domains shown)
VH: DDHLVESGGGLVKPGGSLRLSCATADFFEYDDMSWVRQAPGKGLEWVGSISGRGDHKYLNTKFIGRFTISRDDSKNTLYLQMNSLRAEDTAVYYCARDVGFFDWWGQGTLVTVSS
VL: AIYMHQEPSSLSASVGDRVTITCHGSYWLNSELAWYQQKPGKAPKLLIFDGDFKVFDVPSRFSGSGSHEDYTLTISSLQPEDFATYYCQQYRYHPYTFGHGTKVEIKR
notes: Bispecific Fab with two paratopes in one VH/VL pair

t1/2 (human VEGFA-121-His [1]): 42.5 h | Kd (human Ang2-RBD-muFc): 7.18 nM | Signal [%] (human VEGFA-121 [2]): 50% | kon (human VEGFA-121-His [3]): 1.66e+06 M⁻¹ s⁻¹ | Signal [%] (human Ang2-RBD [4]): 50% | Signal [%] (human Ang2-RBD [6]): 82%
B2: bispecific anti-VEGF-A/anti-ANG2 Fab fragment P1AA8906 (Fab, V domains shown)
VH: DFQLVESGGGLVKPGGSLRLSCAASYEFEYDDMSWVRQAPGKGLEWVGSISPKGGSTYYNTKFIGRFTISRDNSKNTLYLQMNSLRAEDTAVYYCARDVGFFDMWGQGTLVTVSS
VL: B1 VL with N30S, S31N, E32Y, G51A, D52R, F53W, K54L, F56H, D57G
notes: Bispecific Fab with two paratopes in one VH/VL pair (DutaFab); CH1 and Ckappa

t1/2 (human VEGFA-121-His [1]): 33.1 h | Kd (human Ang2-RBD-muFc): 0.00172 nM | IC50, pTie2-Assay (Tie2 phosphorylation in Hek293 cells expressing Tie2, stimulated with Ang-2) (ANG2): 10 nM | Signal [%] (human VEGFA-121 [2]): 50% | kon (human VEGFA-121-His [3]): 727000 M⁻¹ s⁻¹ | Signal [%] (human Ang2-RBD [4]): 50% | IC50, Reporter Gene Assay (Hek_NFAT_KDR_Luc cells stimulated with VEGF-A121, luminescence) (human VEGFA-121 [5]): 1.07 nM | Signal [%] (human Ang2-RBD [6]): 85%
B3: bispecific anti-VEGF-A/anti-ANG2 Fab fragment P1AD9820 (Fab, V domains shown)
VH: B1 VH with D1S, D2E, G52P, R53K
VL: B1 VL with L33V, F56Y, D57E
notes: Bispecific Fab with two paratopes in one VH/VL pair; also called P1AD9820 Fab
